{
  "source": "paper PMC7764910",
  "about": "“Structural Insight into the Contributions of the N-Terminus and Key Active-Site Residues to the Catalytic Efficiency of Glutamine Synthetase 2” (Biomolecules, 2020)",
  "molecules": {"B1": {"name": "DmGS2 (Drosophila melanogaster; P214A) (protein)", "chain": "MSARILEDSPNARINKTILDRYLSLPLQENIVQATYVWIDGTGEDLRCKDRTLDFIPQSPKELPVWNYDGSSCYQAEGSNSDTYLYPVAIYKDPFRRGNNILVMCDTYKFDGTPTDTNKRKTCLEVANKCAAEEPWFGIEQEYTFLDFDGHPLGWPKNGFPGPQGPYYCGVGANKVYARDIVDAHYRACLYAGIKVSGTNAEVMPAQWEFQVGACEGISIGDDLWMARFLLHRISEEFGIVSTLDPKPMPGDWNGAGAHTNVSTKAMREDGGIRDIEKAVAKLSKCHERHIRAYDPKQGQDNARRLTGKHETSSINDFSAGVANRGCSIRIPRGVNDDGKGYFEDRRPSSNCDPYSVVEAILRTICLDE", "notes": "367 residues per monomer modelled"}, "B2": {"name": "DmGS2 (Drosophila melanogaster; E311A) (protein)", "chain": "B1 chain with A214P, E311A", "notes": "as for B1"}, "B3": {"name": "Drosophila melanogaster glutamine synthetase 2 (DmGS2), wild type (enzyme, UniProt P20478 1-369, looked up)", "chain": "B1 chain with A214P", "notes": "Glutamine synthetase 2, cytoplasmic (DmGS2), Drosophila melanogaster; full-length cDNA of mature DmGS2, GenBank X52759; residues numbered to 369; 367 residues of each monomer seen in the crystal; Decamer of two stacked pentamers in the crystal (with ADP); pentamer and decamer in solution by AUC; No removal of the tags is described; also called WT DmGS2; WT; copies: 10"}},
  "key": {"[1]": {"target": "T1, DmGS2 (Drosophila melanogaster, UniProt P20478)", "T1 construct": "gene Gs2; 367 residues per monomer modelled", "T1 sequence (P20478 1-369)": "B1 chain with A214P", "assay": "X-ray crystal structure, […] Å", "format": "binding", "settings": "active site; crystallised with ATP and MgCl2, ADP found in all 10 monomers"}, "[2]": {"substrate": "N", "assay": "purified protein", "settings": "saturating glutamate, 12 mM ATP, 50 mM MgCl2, 50 mM imidazole-HCl pH 7.0, 37 °C"}, "[3]": {"substrate": "NO", "assay": "purified protein", "format": "biochemical, Drosophila melanogaster", "settings": "saturating glutamine, 3 mM MnCl2, 0.4 mM ADP, 20 mM potassium arsenate, 40 mM imidazole pH 7.9, 37 °C"}, "[4]": {"substrate": "N[C@@H](CCC(=O)O)C(=O)O", "assay": "purified protein", "format": "biochemical, Drosophila melanogaster", "settings": "saturating NH4Cl, 12 mM ATP, 50 mM MgCl2, 50 mM imidazole-HCl pH 7.0, 37 °C"}, "[5]": {"substrate": "NC(=O)CC[C@H](N)C(=O)O", "assay": "purified protein", "format": "biochemical, Drosophila melanogaster", "settings": "saturating hydroxylamine, 3 mM MnCl2, 0.4 mM ADP, 20 mM potassium arsenate, 40 mM imidazole pH 7.9, 37 °C"}, "[6]": {"target": "the molecule itself", "assay": "AUC; sedimentation velocity, 20 °C, samples 500 μL at 1.0 mg/mL, absorbance at 280 nm, SEDFIT85"}, "[7]": {"target": "the molecule itself", "assay": "crystal structure; DmGS2 with ADP bound; protein 12 mg/mL in 20 mM Tris-HCl pH 7.9, 150 mM NaCl, 5 mM MgCl2, 5 mM ATP, 1 mM sodium 2-mercaptoethanesulphonate; hanging-drop vapor diffusion; 2.12 Å"}},
  "note": "Numbering of substitutions follows the chain as printed. Numbers in names are those of the source.",
  "data": [
    {"molecule": "Nc1ncnc2c1ncn2[C@@H]1O[C@H](COP(=O)(O)OP(=O)(O)O)[C@@H](O)[C@H]1O", "note": "[ADP]", "values": [
      {"measurement": "X-ray crystal structure, 2.12 Å", "setting": "[1]", "result": "A structure was obtained for the DmGS2 decamer in complex with ADP"}
    ]},
    {"molecule": "B1", "values": [
      {"measurement": "Km", "setting": "[2]", "result": "0.11 ± 0.03", "unit": "mM"},
      {"measurement": "Vmax", "setting": "[2]", "result": 5.5, "unit": "µM/min"},
      {"measurement": "kcat", "setting": "[2]", "result": 0.0183, "unit": "s⁻¹"},
      {"measurement": "kcat/Km", "setting": "[2]", "result": 177, "unit": "M⁻¹ s⁻¹"},
      {"measurement": "Km", "setting": "[3]", "result": "1.5 ± 0.2", "unit": "mM"},
      {"measurement": "Vmax", "setting": "[3]", "result": 88, "unit": "µM/min"},
      {"measurement": "Km", "setting": "[4]", "result": "6.8 ± 2.2", "unit": "mM"},
      {"measurement": "Vmax", "setting": "[4]", "result": 10.6, "unit": "µM/min"},
      {"measurement": "kcat", "setting": "[4]", "result": "0.0355 ± 0.00183", "unit": "s⁻¹"},
      {"measurement": "kcat/Km", "setting": "[4]", "result": "6.33 ± 2.17", "unit": "M⁻¹ s⁻¹"},
      {"measurement": "Km", "setting": "[5]", "result": "30.6 ± 6.1", "unit": "mM"},
      {"measurement": "Vmax", "setting": "[5]", "result": 150, "unit": "µM/min"},
      {"measurement": "kcat", "setting": "[5]", "result": "0.5 ± 0.0333", "unit": "s⁻¹"},
      {"measurement": "kcat/Km", "setting": "[5]", "result": "16.8 ± 2.33", "unit": "M⁻¹ s⁻¹"}
    ]},
    {"molecule": "B2", "values": [
      {"measurement": "Km", "setting": "[4]", "result": "26.2 ± 2.2", "unit": "mM"},
      {"measurement": "Vmax", "setting": "[4]", "result": 5.5, "unit": "µM/min"},
      {"measurement": "kcat", "setting": "[4]", "result": "0.0183 ± 0.00133", "unit": "s⁻¹"},
      {"measurement": "kcat/Km", "setting": "[4]", "result": "0.7 ± 0.00833", "unit": "M⁻¹ s⁻¹"}
    ]},
    {"molecule": "B3", "values": [
      {"measurement": "stoichiometry N", "setting": "[6]", "result": 5},
      {"measurement": "Km", "setting": "[2]", "result": "0.47 ± 0.03", "unit": "mM"},
      {"measurement": "Vmax", "setting": "[2]", "result": 4.6, "unit": "µM/min"},
      {"measurement": "kcat", "setting": "[2]", "result": 0.0153, "unit": "s⁻¹"},
      {"measurement": "kcat/Km", "setting": "[2]", "result": 32.7, "unit": "M⁻¹ s⁻¹"},
      {"measurement": "Km", "setting": "[3]", "result": "2.0 ± 0.4", "unit": "mM"},
      {"measurement": "Vmax", "setting": "[3]", "result": 64, "unit": "µM/min"},
      {"measurement": "Km", "setting": "[4]", "result": "5.9 ± 1.6", "unit": "mM"},
      {"measurement": "Vmax", "setting": "[4]", "result": 9.2, "unit": "µM/min"},
      {"measurement": "kcat", "setting": "[4]", "result": "0.0307 ± 0.00133", "unit": "s⁻¹"},
      {"measurement": "kcat/Km", "setting": "[4]", "result": "5.67 ± 1.33", "unit": "M⁻¹ s⁻¹"},
      {"measurement": "Km", "setting": "[5]", "result": "43.1 ± 9.7", "unit": "mM"},
      {"measurement": "Vmax", "setting": "[5]", "result": 120, "unit": "µM/min"},
      {"measurement": "kcat", "setting": "[5]", "result": "0.4 ± 0.0333", "unit": "s⁻¹"},
      {"measurement": "kcat/Km", "setting": "[5]", "result": "9.67 ± 1.33", "unit": "M⁻¹ s⁻¹"},
      {"measurement": "stoichiometry N", "setting": "[7]", "result": 10}
    ]}
  ]
}
